Reference: article PMC4646087 (Journal of molecular biology, 2015)
Read-outs that look alike come from different tables or passages of the source. One block for each molecule: values may come before it.

How the values were obtained:
[1] = molecular target: T1, SR-TOG3 construct of human CLASP2 (human); assay: ITC
T1 sequence (O75122 whole entry, looked up): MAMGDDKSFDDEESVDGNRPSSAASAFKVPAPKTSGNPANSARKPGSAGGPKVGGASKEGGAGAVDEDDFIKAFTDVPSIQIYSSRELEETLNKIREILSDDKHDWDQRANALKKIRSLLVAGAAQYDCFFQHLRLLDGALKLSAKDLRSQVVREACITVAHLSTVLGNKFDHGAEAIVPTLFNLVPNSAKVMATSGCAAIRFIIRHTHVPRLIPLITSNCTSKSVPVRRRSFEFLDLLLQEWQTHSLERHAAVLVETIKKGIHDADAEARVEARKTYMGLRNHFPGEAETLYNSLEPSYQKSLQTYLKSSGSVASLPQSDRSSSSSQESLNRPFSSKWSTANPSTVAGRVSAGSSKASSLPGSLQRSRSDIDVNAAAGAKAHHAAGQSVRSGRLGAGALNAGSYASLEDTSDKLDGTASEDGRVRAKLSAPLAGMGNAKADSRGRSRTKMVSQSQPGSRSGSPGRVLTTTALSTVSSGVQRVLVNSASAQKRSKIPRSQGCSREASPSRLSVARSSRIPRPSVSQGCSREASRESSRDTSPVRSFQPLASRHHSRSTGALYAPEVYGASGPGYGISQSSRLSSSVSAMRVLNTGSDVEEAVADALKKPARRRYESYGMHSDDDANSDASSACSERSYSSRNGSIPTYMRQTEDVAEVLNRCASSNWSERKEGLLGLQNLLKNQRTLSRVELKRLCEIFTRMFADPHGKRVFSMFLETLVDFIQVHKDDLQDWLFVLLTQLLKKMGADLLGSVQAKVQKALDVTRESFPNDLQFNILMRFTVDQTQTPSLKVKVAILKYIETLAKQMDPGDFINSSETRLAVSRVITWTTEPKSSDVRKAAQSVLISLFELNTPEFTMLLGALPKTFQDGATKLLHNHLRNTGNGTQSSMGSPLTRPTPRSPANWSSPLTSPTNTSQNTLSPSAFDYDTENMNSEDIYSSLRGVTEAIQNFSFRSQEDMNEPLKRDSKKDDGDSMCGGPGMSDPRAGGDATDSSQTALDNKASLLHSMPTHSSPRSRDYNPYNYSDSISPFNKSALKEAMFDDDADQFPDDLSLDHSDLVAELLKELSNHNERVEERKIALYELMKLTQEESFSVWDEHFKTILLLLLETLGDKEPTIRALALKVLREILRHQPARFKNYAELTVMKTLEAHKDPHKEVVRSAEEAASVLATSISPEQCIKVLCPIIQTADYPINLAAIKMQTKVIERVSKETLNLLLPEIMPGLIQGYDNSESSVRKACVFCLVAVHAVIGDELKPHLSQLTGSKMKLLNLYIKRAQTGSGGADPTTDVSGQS

[2] = molecular target: T2, TOG2-SR construct of human CLASP2 (human); assay: ITC
T2 sequence (O75122 whole entry, looked up): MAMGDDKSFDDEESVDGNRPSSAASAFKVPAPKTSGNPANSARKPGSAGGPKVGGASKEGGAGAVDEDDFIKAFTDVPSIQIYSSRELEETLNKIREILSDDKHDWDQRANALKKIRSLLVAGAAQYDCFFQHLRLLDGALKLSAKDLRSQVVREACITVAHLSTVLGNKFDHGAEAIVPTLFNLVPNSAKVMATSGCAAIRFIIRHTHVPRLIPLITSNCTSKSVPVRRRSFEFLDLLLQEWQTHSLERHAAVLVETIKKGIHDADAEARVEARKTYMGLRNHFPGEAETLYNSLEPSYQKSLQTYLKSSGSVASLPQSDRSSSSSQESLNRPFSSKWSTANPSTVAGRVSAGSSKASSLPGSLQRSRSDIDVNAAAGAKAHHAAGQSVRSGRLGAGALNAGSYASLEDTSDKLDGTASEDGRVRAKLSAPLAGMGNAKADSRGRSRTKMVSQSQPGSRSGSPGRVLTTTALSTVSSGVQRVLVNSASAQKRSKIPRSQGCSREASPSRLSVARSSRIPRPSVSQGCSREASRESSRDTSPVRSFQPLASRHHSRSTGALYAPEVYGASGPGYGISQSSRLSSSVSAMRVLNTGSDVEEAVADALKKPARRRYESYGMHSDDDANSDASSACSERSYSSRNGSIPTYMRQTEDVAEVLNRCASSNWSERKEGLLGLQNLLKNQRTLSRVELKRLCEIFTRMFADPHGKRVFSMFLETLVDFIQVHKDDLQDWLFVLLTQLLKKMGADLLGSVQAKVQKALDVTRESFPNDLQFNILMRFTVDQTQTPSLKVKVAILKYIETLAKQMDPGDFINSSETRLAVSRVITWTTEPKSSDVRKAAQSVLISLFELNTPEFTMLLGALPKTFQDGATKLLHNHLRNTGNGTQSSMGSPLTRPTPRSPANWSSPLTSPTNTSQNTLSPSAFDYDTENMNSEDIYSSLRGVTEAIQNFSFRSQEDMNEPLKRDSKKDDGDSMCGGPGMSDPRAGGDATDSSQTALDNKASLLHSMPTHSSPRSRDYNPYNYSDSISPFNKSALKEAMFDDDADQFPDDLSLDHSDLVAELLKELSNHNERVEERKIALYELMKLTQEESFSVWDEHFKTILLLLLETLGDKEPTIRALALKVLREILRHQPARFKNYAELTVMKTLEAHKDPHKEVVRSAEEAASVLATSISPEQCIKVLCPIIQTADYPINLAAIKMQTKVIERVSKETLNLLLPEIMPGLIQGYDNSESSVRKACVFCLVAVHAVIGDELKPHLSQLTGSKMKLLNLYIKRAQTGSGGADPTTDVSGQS

[3] = molecular target: T3, SR region of human CLASP2 (residues 311-648) (human, UniProt O75122 311-648); assay: ITC
T3 sequence (looked up): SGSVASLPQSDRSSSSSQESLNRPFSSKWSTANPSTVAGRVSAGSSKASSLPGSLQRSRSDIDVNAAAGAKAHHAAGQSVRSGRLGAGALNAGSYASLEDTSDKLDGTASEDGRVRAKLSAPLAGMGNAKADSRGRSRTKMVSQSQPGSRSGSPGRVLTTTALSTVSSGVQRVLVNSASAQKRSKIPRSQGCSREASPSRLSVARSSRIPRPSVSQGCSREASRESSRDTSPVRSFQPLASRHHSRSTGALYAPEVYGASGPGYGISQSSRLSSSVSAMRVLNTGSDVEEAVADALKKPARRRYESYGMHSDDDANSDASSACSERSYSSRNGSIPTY

[4] = molecular target: T3, SR region of human CLASP2 (residues …); assay: ITC; remark: listed apart in the source
[5] = molecular target: αβ-tubulin heterodimer isolated from porcine brain (porcine) (UniProt P02550); assay: co-sedimentation

- Kd [1]: 1200 nM
- stoichiometry N (CLASP2 versus EB1 dimer) [1]: 2
- Kd [2]: 2000 nM
- stoichiometry N (CLASP2 versus EB1 dimer) [2]: 2.2
Molecule: EB1 (dimeric) (from UniProt Q15691 1-268) (natural protein)

- Kd [3]: 2000 ± 400 nM
- stoichiometry N [3]: 2 CLASP2 versus EB1 dimer
- Kd [4]: 3000 ± 400 nM
- stoichiometry N [4]: 2 CLASP2 versus EB1 dimer
B1: EB1 (dimeric) (natural protein, UniProt Q15691 1-268, looked up)
chain: MAVNVYSTSVTSDNLSRHDMLAWINESLQLNLTKIEQLCSGAAYCQFMDMLFPGSIALKKVKFQAKLEHEYIQNFKILQAGFKRMGVDKIIPVDKLVKGKFQDNFEFVQWFKKFFDANYDGKDYDPVAARQGQETAVAPSLVAPALNKPKKPLTSSSAAPQRPISTQRTAAAPKAGPGVVRKNPGVGNGDDEAAELMQQVNVLKLTVEDLEKERDFYFGKLRNIELICQENEGENDPVLQRIVDILYATDEGFVIPDEGGPQEEQEEY

- fold affinity relative to hC2-TOG2 [5]: 3 fold
B2: human CLASP2 TOG3 domain (hC2-TOG3; residues 649-881) (domain or fragment)
chain: MRQTEDVAEVLNRCASSNWSERKEGLLGLQNLLKNQRTLSRVELKRLCEIFTRMFADPHGKRVFSMFLETLVDFIQVHKDDLQDWLFVLLTQLLKKMGADLLGSVQAKVQKALDVTRESFPNDLQFNILMRFTVDQTQTPSLKVKVAILKYIETLAKQMDPGDFINSSETRLAVSRVITWTTEPKSSDVRKAAQSVLISLFELNTPEFTMLLGALPKTFQDGATKLLHNHLRN
